Experimental data: PMC5133369 (Experimental & Molecular Medicine, 2016)
Numbering of substitutions follows the chain as printed. One block for each binder: values may come before it.

Molecular target: RNA polymerase II (largest subunit, with its C-terminal domain) (Homo sapiens, UniProt P24928)
Experiment: far-Western, overlay or dot blot

- binding result: binds
B1: PanCTD scFv-Fc fusion protein (scFv, V domains shown)
VH: EVQLVESGGGLVQPGGSLRLSCAASGFNIKDTYIHWVRQAPGKGLEWVARIYPTNGYTRYADSVKGRFTISADTSKNTAYLQMNSLRAEDTAVYYCSRYGRRGVFDYWGQGTLVTVSS
VL: not shown

- binding result: binds
B2: pCTD-S7S5 scFv-Fc fusion protein (scFv, V domains shown)
VH: EVQLVESGGGLVQPGGSLRLSCAASGFNIKDTYIHWVRQAPGKGLEWVARIYPTNGYTRYADSVKGRFTISADTSKNTAYLQMNSLRAEDTAVYYCSRDPWSRWAKVFDYWGQGTLVTVSS
VL: not shown

- binding result: binds
B3: pCTD-1stS2 scFv-Fc fusion protein (scFv, V domains shown)
VH: B2 VH with D99G, P100A, W101F, S102W, R103F, W104S, A105R, K106S, V107H
VL: not shown

- binding result: binds
B4: pCTD-2ndS2 scFv-Fc fusion protein (scFv, V domains shown)
VH: EVQLVESGGGLVQPGGSLRLSCAASGFNIKDTYIHWVRQAPGKGLEWVARIYPTNGYTRYADSVKGRFTISADTSKNTAYLQMNSLRAEDTAVYYCSRDRAQWWEYKNAMDVWGQGTLVTVSS
VL: not shown

- binding result: binds
B5: pCTD-1stS5 scFv-Fc fusion protein (scFv, V domains shown)
VH: B4 VH with D99G, R100P, A101W, Q102P, W103G, W104S, E105H, Y106H, N108Y
VL: not shown

- binding result: binds
B6: pCTD-S7 scFv-Fc fusion protein (scFv, V domains shown)
VH: EVQLVESGGGLVQPGGSLRLSCAASGFNIKDTYIHWVRQAPGKGLEWVARIYPTNGYTRYADSVKGRFTISADTSKNTAYLQMNSLRAEDTAVYYCSRGISYPWQRGYYYAMDVWGQGTLVTVSS
VL: not shown
